According to PMC7859452, “A Dimerization Site at SCR-17/18 in Factor H Clarifies a New Mechanism for Complement Regulatory Control” (Frontiers in Immunology, 2020):

B1: Complement Factor H SCR-16/18H fragment (domain or fragment)
chain: GLPCKSPPEISHGVVAHMSDSYQYGEEVTYKCFEGFGIDGPAIAKCLGEKWSHPPSCIKTDCLSLPSFENAIPMGEKKDVYKAGEQVTYTCATYYKMDGASNVTCINSRWTGRPTCRDTSCVNPPTVQNAYIVSRQMSKYPSGERVRYQCRSPYEMFGDEEVMCLNGNWTEPPQCKDST
modifications: N-linked glycan chains on SCR-17 and SCR-18
B2: Complement Factor H SCR-17H fragment (domain or fragment)
chain: TDCLSLPSFENAIPMGEKKDVYKAGEQVTYTCATYYKMDGASNVTCINSRWTGRPTCRDTS
modifications: also: N-linked glycan chain, site not given here
B3: Complement Factor H SCR-18H fragment (domain or fragment)
chain: TSCVNPPTVQNAYIVSRQMSKYPSGERVRYQCRSPYEMFGDEEVMCLNGNWTEPPQCKDST
modifications: also: N-linked glycan chain, site not given here
B4: Complement Factor H SCR-18/20 fragment (domain or fragment)
chain: TSCVNPPTVQNAYIVSRQMSKYPSGERVRYQCRSPYEMFGDEEVMCLNGNWTEPPQCKDSTGKCGPPPPIDNGDITSFPLSVYAPASSVEYQCQNLYQLEGNKRITCRNGQWSEPPKCLHPCVISREIMENYNIALRWTAKQKLYSRTGESVEFVCKRGYRLSSRSHTLRTTCWDGKLEYPTCAKR
modifications: N-linked glycan chain on SCR-18
B5: Complement Factor H SCR-17/18H fragment (domain or fragment)
chain: TDCLSLPSFENAIPMGEKKDVYKAGEQVTYTCATYYKMDGASNVTCINSRWTGRPTCRDTSCVNPPTVQNAYIVSRQMSKYPSGERVRYQCRSPYEMFGDEEVMCLNGNWTEPPQCKDST
modifications: N-linked glycan chains on SCR-17 and SCR-18
B6: Complement Factor H SCR-16/20 fragment (domain or fragment)
chain: GLPCKSPPEISHGVVAHMSDSYQYGEEVTYKCFEGFGIDGPAIAKCLGEKWSHPPSCIKTDCLSLPSFENAIPMGEKKDVYKAGEQVTYTCATYYKMDGASNVTCINSRWTGRPTCRDTSCVNPPTVQNAYIVSRQMSKYPSGERVRYQCRSPYEMFGDEEVMCLNGNWTEPPQCKDSTGKCGPPPPIDNGDITSFPLSVYAPASSVEYQCQNLYQLEGNKRITCRNGQWSEPPKCLHPCVISREIMENYNIALRWTAKQKLYSRTGESVEFVCKRGYRLSSRSHTLRTTCWDGKLEYPTCAKR
modifications: N-linked glycan chains on SCR-17 and SCR-18

Target: the molecule itself
Test: AUC; sedimentation velocity, c(s) size distribution (SEDFIT), 50,000 rpm, 20 °C, 10 mM Hepes pH 7.4, 50 mM NaCl (low salt control; data not shown); KD of dimer to monomers from integration of the c(s) peaks

Protein	Kd	percent dimer	stoichiometry N
B1	~10 µM	50%	
B2			2
B3	~60 µM		2
B4	180 ± 130 µM		2
B5	2 ± 1 µM		
B6	90 ± 20 µM		2

Target: the molecule itself
Test: AUC; sedimentation velocity, c(s) size distribution (SEDFIT), 50,000 rpm, 20 °C, 10 mM Hepes pH 7.4, 137 mM NaCl, concentration series 0.2 – 3 mg/ml; KD of dimer to monomers from integration of the c(s) peaks

Protein	Kd	percent dimer	stoichiometry N
B1	6 ± 5 µM	60%	2
B2	5 ± 4 µM	80%	
B3	37 ± 27 µM	~50%	
B4	590 ± 150 µM		
B5	3 ± 1 µM	80%	2
B6	31 ± 14 µM	40%	
